This passage reports stoichiometry N results from article PMC3517971.

For orientation: stoichiometry N means a count of units in the complex or per binding partner.

For test [1], the target named is SpoIIE(590–827), PP2C phosphatase domain of SpoIIE from Bacillus subtilis (B. subtilis) (UniProt P37475). Briefly: crystal structure; crystals from 14–15% polyethylene glycol 400, 0.1 M Tris–HCl (pH 8.5), 0.2 M sodium citrate, 0–50 mM MnCl2; space group P6_(1)22, two molecules in the asymmetric unit; 2.6 Å (PDB 3T91).
Test [2] has the same target. Briefly: crystal structure; crystals from 0.9–1.2 M sodium acetate, 0.1 M Hepes pH 7.5; protein pre-incubated with 1–2 mM MnCl2 for 30 min; space group P6_(1)22; 2.76 Å (PDB 3T9Q).

Regarding “SpoIIE(590–827), PP2C phosphatase domain of SpoIIE from Bacillus subtilis (from UniProt P37475 590-827) (domain or fragment)”, the stoichiometry N in test [1] and in test [2] was 2 in each case.
